Results from the DeepSol protein solubility set.

assay: soluble on expression in E. coli; label from the status in PepcDB or PDB records

Sequence	soluble on expression in E. coli
MAVTQTRDAVIIGGGHNGLVCAFYLAKAGLKVTVCEARGVVGGAAVTEEFHPGFRNSVASYTVSLLNPRVIADMGLRELGLTFLERPISNFLPISDDKYIKLGGGLERTQEEFRKYSRRDAEVLPAYYAMLDEIGDILRDLAQETPPNLGDGLPGLLRALRQGGRLAFLSRQRKRDLLDLFTKSARDVLDGWFESEPVKAAFGFDAVVGNFASPDTPGSAYVLLHHTFGEVNGKKGAWGHAVGGMGAITQAMAKACEAAGVEILLDAPVEAVHIDGGKAAGVQLVDGRQIMAPIVSANVNPALLYKKLVPPSALTPDFRKAVDGYKNGSGTFRMNVALSELPSFTCLPGKETAEHHQSGIVIAPSLDYMDAAYRDAKGQGISKAPIVEMLIPSSLDTSLAPPGQHVASLFCQQFAPELPDGRSWDDAREAAADLIIDTVDQWAPGFKASVLGRMILSPLDLERKFGLIGGDIMHGHMSLDQLWATRPLLGHASHRAPIAGLYMCGAGTHPGGGVSGNPGRNAAREILRDKDFATAVKLSVVGRLEHHHHHH	not soluble
MAHHHHHHMVDLLQRALANPFQDKLTFSPEDWDAHGLQPYQRCLREPFLRGCDTLVHKIRMQRIDFAKGILEQVVEDVQFRQKWGSLGEDYVTENAVQLTAYIFDSQERSLGGRRDPRKEDGAAQNIVYQPSTLSLGGDPALESLVTCVWFLRRDVLLLHQDFCYPVCEGRLTVFGRVQVALLRFYVRHAIKPRLLFLRQQHRGTLVVVELMMIGFAFCVERLMRPGLTCSGTVARRIRRVQGGTASSTSTGSGLVSGVHGEDSVAAASSGGGSAGGGGGGGGGGKLHCRPGRRRRWVVVM	not soluble
MAHHHHHHMMQSKVLPTPQDVVLQGLLSLDSTVKTKTHALVSRQLDRLESYLRIKCGWSVPLSSSSTSAEAGCGSNVVRVSEYVRAFTPDGVPIVDRNGGSFNCFVCCGFGDHAMDFAPGAAKVLGKLVEHQAQHLREEDIEKTKTWGLLTSKLSPSRRAAVEEELQLLFNGVDSDAVKRKGSRTPSEASALALLRHEDNPYSTNRFANMVRKEVKMDSSPPILSRLCALEDVFLTHLEPLRRRFHAKATELALRENTPDWLRTFVFCFMYEEDDDPAAQARKEQHVRSLQRLASQYETPVTDAKTTGDGAEELPLTPAEQSKRKQAELERRAREVFAKRV	not soluble
AHHHHHHASAKWVCKICGYIYDEDAGDPDNGISPGTKFEELPDDWVCPICGAPKSEFEKLEDGSRFIDANVFIYAILKPKRELNEKELKIKRVSKEIFNRINGGEEVVTTVVHLSEVANVLEDAANLSFAISFLKDVLIKGNVIVEEVSDRDYMESVLLAEEKGVSINDALAYILMKRKGIEEIYTFDRHFENLDVRIVNS	soluble
MSLKIAKVEALSVAMGDGTGWMPTSAFVRITAEDGTVGWGEASPMLGGIASLGVVARDIAPFLEGQEVLDHAVLLDRMMHRLVKLGPEGIATAALAACDIALWDLKGKLLGQPIYKLLGGAWRTRLPCYSSIGGNAARSVDEVVREVARRVEAEQPAAVKIRWDGDRTRCDVDIPGDIAKARAVRELLGPDAVIGFDANNGYSVGGAIRVGRALEDLGYSWFEEPVQHYHVGAMGEVAQRLDITVSAGEQTYTLQALKDLILSGVRMVQPDIVKMGGITGMMQCAALAHAHGVEFVPHQTQPGVGHFANIHVLSTLMHMTKPVELADRWDRGRPVFRNPAEPVDGHFALGDAPGLGIVVDEDELASRATEITVGRDQRPPAGGQYEGHHHHHH	soluble
MRKSRLSRYKQNKLIELFVAGVTARTATEPDSIVYTDCYRRYDVLDAGEFSHFRINHSTHFAERQNHINGIGNFWNRAKRHLRKFDGIPKEHFEPYLKECERRFLEHHHHHH	soluble
MSRNQNHEEYQDDTRPLSIEEQRARLRQLIIMGKERGYITYSEINDALPDDMSDADQIDNIVSMISGLGIQVTEHAPDAEDILLSDNAAVTDDDAVEEAEAALSSADSEFGRTTDPVRMYMREMGQVDLLTREDEIIIAKKIENALKNMVQAISACPGSIAEILELIEKIRKDEIRVDEVVEAIIDPNEVLLNELGLGHLETTAPEKPSNDNSDENEDDEESEEDADEISAANLAELKQKVIGHFAQIEKDYKKMIGRLEKHHSRHKDYLAYRDAIANKLLEVRFATRQIDSLSSSLRGKVENIRKLEREIRDICLDRVHMERDYFIQNFLPEITNLEWIEEEIAKGRVWSDALDRFRHAILEKQTELADMEKETRISIEELKEINKNMVSSEKETAAAKQEMIQANLRLVISIAKKYTNRGLQFLDLIQEGNIGLMKAVDKFEYRRGYKFSTYATWWIRQAITRSIADQARTIRIPVHMIETINKMNRISRQHLQETGEEPDSAKLAELMQMPEDKIRKIMKIAKEPISMETPIGDDDDSHLGDFIEDANNVAPADAAMYTSLHEVTKEILESLTPREAKVLRMRFGIDMNTDHTLEEVGRQFDVTRERIRQIEAKALRKLRHPTRSDRLRSFLDSEDSKL	soluble
MSLGYGIRLLVWGEFACFTRPEMKVERVSYDVMTPSAARGILESIHWKPSIVWKIDKIHVLNEIRFDNVRRNEVGSKIPTGNVRKAMKGEPTLLCQYASEDRQQRATLLLRNVAYVIVAHFEMTSKAGPQDSPEKHYAIFSRRARQGQCFQQPYFGCREFPAKFRLIEEDEPTPHSLHKGDKDLGWMLLDIDHEDGMNPRFFRATMKDGLIEVPPMERGLTVLEGHHHHHH	soluble
MSLEKKITPSELELNEFIKIINEMSGIDLTDKKNILALKLNKFLEGTNTKNFSEFLGKLKSNRQLKQETLDFVTIGETYFLRELAQLKEIIYYAKSLEKRVNILSAPCSSGEEVYSLALLAAQNFIKDMYILGVDINSSVIEKAKLGKYQGRTLQRLSESEKRRFFLESEDKFYTINKNELCTCKFELCNVFEEKFSRLGKFDIIASRNMIIYFDHESKLKLMERFHRILNDKGRLYVGNADLIPETIYFKKIFSPRGVYYEKEGHHHHHH	soluble
MTTRRLALFDLDHTLLPLDSDYQWADFLARTGRAGDPAEARRRNDDLMERYNRGELTAEQAAEFMLGLLAAHSPVELAAWHEEFMRDVIRPSLTVQAVDVVRGHLAAGDLCALVTATNSFVTAPIARAFGVQHLIATDPEYRDGRYTGRIEGTPSFREGKVVRVNQWLAGMGLALGDFAESYFYSDSVNDVPLLEAVTRPIAANPSPGLREIAQARGWQVIDLFDHLEDAKS	soluble
MAHHHHHHMSDLSTAHASQGYRFDPSRMNGCLHDTIIFKRLPSRLRHSTGSRTRSLRVNRPAVE	soluble
MSLKVKAINLYTYKEPFKSPISTPKVKLTHRESLFTEIVTYSGETYYGECNAFLTNWYDKETILTVVNRLRQWIPQVLHKDMTSFDSWLPYLNQMNDAPAARSMVVMAVYQMYNDLHDFEVQYGATVSGLTNSQIETLLETRPKRIKLKWSTSLIKDLETIRLLNFDCDIAIDANESLTKPSFLQLANVNTSDIIYIEEPFKILEDLNDIDMSIFPRIAIDEKALSIEKIQSIIQQYPIQVVVLKPFRLGGIDRMLNAMKILKEKNIRFVVGGMYEFGLSRYFTAMLAKEGSYPGDITPHGYYFSNDIVETSGILKGGMIYFTPPKVKRSLLNKVEGHHHHHH	not soluble
MGSDKIHHHHHHMSDIIDEVISSFKTSSIFINREYLLPDYIPDELPHREDQIRKIASILAPLYREEKPNNIFIYGLTGTGKTAVVKFVLSKLHKKFLGKFKHVYINTRQIDTPYRVLADLLESLDVKVPFTGLSIAELYRRLVKAVRDYGSQVVIVLDEIDAFVKKYNDDILYKLSRINSEVNKSKISFIGITNDVKFVDLLDPRVKSSLSEEEIIFPPYNAEELEDILTKRAQMAFKPGVLPDNVIKLCAALAAREHGDARRALDLLRVSGEIAERMKDTKVKEEYVYMAKEEIERDRVRDIILTLPFHSKLVLMAVVSISSEENVVSTTGAVYETYLNICKKLGVEAVTQRRVSDIINELDMVGILTAKVVNRGRYGKTKEIGLAVDKNIIVRSLIESDSRFADLWS	not soluble
MQNSALKAWLDSSYLSGANQSWIEQLYEDFLTDPDSVDANWRSTFQQLPGTGVKPDQFHSQTREYFRRLAKDASRYSSTISDPDTNVKQVKVLQLINAYRFRGHQHANLDPLGLWQQDKVADLDPSFHDLTEADFQETFNVGSFASGKETMKLGELLEALKQTYCGPIGAEYMHITSTEEKRWIQQRIESGRATFNSEEKKRFLSELTAAEGLERYLGAKFPGAKRFSLEGGDALIPMLKEMIRHAGNSGTREVVLGMAHRGRLNVLVNVLGKKPQDLFDEFAGKHKEHLGTGDVKYHMGFSSDFQTDGGLVHLALAFNPSHLEIVSPVVIGSVRARLDRLDEPSSNKVLPITIHGDAAVTGQGVVQETLNMSKARGYEVGGTVRIVINNQVGFTTSNPLDARSTPYCTDIGKMVQAPIFHVNADDPEAVAFVTRLALDFRNTFKRDVFIDLVCYRRHGHNEADEPSATQPLMYQKIKKHPTPRKIYADKLEQEKVATLEDATEMVNLYRDALDAGDCVVAEWRPMNMHSFTWSPYLNHEWDEEYPNKVEMKRLQELAKRISTVPEAVEMQSRVAKIYADRQAMAAGEKLFDWGGAENLAYATLVDEGIPVRLSGEDSGRGTFFHRHAVIHNQSNGSTYTPLQHIHNGQGAFRVWDSVLSEEAVLAFEYGYATAEPRTLTIWEAQFGDFANGAQVVIDQFISSGEQKWGRMCGLVMLLPHGYEGQGPEHSSARLERYLQLCAEQNMQVCVPSTPAQVYHMLRRQALRGMRRPLVVMSPKSLLRHPLAVSSLEELANGTFLPAIGEIDELDPKGVKRVVMCSGKVYYDLLEQRRKNNQHDVAIVRIEQLYPFPHKAMQEVLQQFAHVKDFVWCQEEPLNQGAWYCSQHHFREVIPFGASLRYAGRPASASPAVGYMSVHQKQQQDLVNDALNVE	soluble
MGSDKIHHHHHHMPNRDSEKLITDGYTTTLLGDELMVCENMKHIRVTSVPSYTEVGMIILCLRGTAKICIFDNIHILAKNELAVILPGQLVSITELSPDFLCNIVVLSRALFDDTLSGFSRFSPLFFVYMRSHYWYELTGEEIERFKLFYGSLSQRAKDPTHFFRRESVLLLLRIFYLDIYNEYYSKSHLMKGGSDMGKSKLAHDFFCLIMQHYREHKDVAFYADKLCITSKYLSMVIKEASGKTAKDWIVEYAILEIKAMLKNSTMNIQEISIKTNFANQSSLGRFFRKHTGMTLTEYRMHR	not soluble
MPSAMNERTVAELEKLLRYIAANLKQRGREILTNYPITPPQFVALQWLLEEGDLTVGELSNKMYLACSTTTDLVDRMERNGLVARVRDEHDRRVVRIRLLEKGERIIEEVIEKRQRDLANVLESFSDEEIVVFERCLRKLHQEMTKE	soluble
MGSSHHHHHHSSGRENLYFQGMNDSIHGGLRVCQSTPLVQLQDRGRFGCRHLGVTQGGALDWLSMGWANWLLGNPLDAAVIEIALGGFVADCRADGWLALAGGDLGATLDGQPLPAWGAFAVRGGQRLAFAHPRQGARAYLAAPGGFAGERQLGSLATVAREGLGGPRADGKALAAGDSLGWLADGARPRALPLPSERIMDCTGEARLELILGAQIGDFPAMSLFDAFNGDWQVDTRADRMGVRLLGPRLECRQQSMISEGIALGAVQVPPDGQPIVLLNDRQTIGGYPRLGALAPLALARLAQCLPGQRVRLLPTVQEAAHREHRRLLAAWDA	soluble
MTTMSGYTRSQRPRQAILGQLPRIHRADGSPIRVLLVDDEPALTNLVKMALHYEGWDVEVAHDGQEAIAKFDKVGPDVLVLDIMLPDVDGLEILRRVRESDVYTPTLFLTARDSVMDRVTGLTSGADDYMTKPFSLEELVARLRGLLRRSSHLERPADEALRVGDLTLDGASREVTRDGTPISLSSTEFELLRFLMRNPRRALSRTEILDRVWNYDFAGRTSIVDLYISYLRKKIDSDREPMIHTVRGIGYMLRPPE	not soluble
MAKENPFTPFSDWTKHWQQFFQNDFWGSIQPLLPSSNKPSSGMNIYKKDNELLVVISLPGLEKIEDAEVYVSYKTLEVKATINLNFKGFELVEEGLFQGQFQKTIPLPFAVKEDRIEATYHNGLLFIHLHRLIPDEPKKKIVIKKSE	not soluble
